{"source": "IntAct's records for PubMed 10102273", "parents": {"B1": {"name": "Forkhead box protein O3 (Homo sapiens), O43524 (parent)", "chain": "MAEAPASPAPLSPLEVELDPEFEPQSRPRSCTWPLQRPELQASPAKPSGETAADSMIPEEEDDEDDEDGGGRAGSAMAIGGGGGSGTLGSGLLLEDSARVLAPGGQDPGSGPATAAGGLSGGTQALLQPQQPLPPPQPGAAGGSGQPRKCSSRRNAWGNLSYADLITRAIESSPDKRLTLSQIYEWMVRCVPYFKDKGDSNSSAGWKNSIRHNLSLHSRFMRVQNEGTGKSSWWIINPDGGKSGKAPRRRAVSMDNSNKYTKSRGRAAKKKAALQTAPESADDSPSQLSKWPGSPTSRSSDELDAWTDFRSRTNSNASTVSGRLSPIMASTELDEVQDDDAPLSPMLYSSSASLSPSVSKPCTVELPRLTDMAGTMNLNDGLTENLMDDLLDNITLPPSQPSPTGGLMQRSSSFPYTTKGSGLGSPTSSFNSTVFGPSSLNSLRQSPMQTIQENKPATFSSMSHYGNQTLQDLLTSDSLSHSDVMMTQSDPLMSQASTAVSAQNSRRNVMLRNDPMMSFAAQPNQGSLVNQNLLHHQHQTQGALGGSRALSNSVSNMGLSESSSLGSAKHQQQSPVSQSMQTLSDSLSGSSLYSTSANLPVMGHEKFPSDLDLDMFNGSLECDMESIIRSELMDADGLDFNFDSLISTQNVVGLNVGNFTGAKQASSQSWVPG"}}, "data": [{"variants_of": "B1", "conditions": "with 1433z_human YWHAZ", "values": [{"variant": "S253A", "effect of a mutation on the interaction": "decreasing interaction strength"}, {"variant": "T32A", "effect of a mutation on the interaction": "decreasing interaction strength"}, {"variant": "S315A", "effect of a mutation on the interaction": "with no effect"}, {"variant": "T32A;S253A", "effect of a mutation on the interaction": "disrupting interaction strength"}]}, {"variants_of": "B1", "conditions": "with akt1_human AKT1, P31749", "values": [{"variant": "S315A", "effect of a mutation on the interaction": "with no effect"}]}]}
